Reference: patent US20180074079A1
One block for each substance: values may come before it.

What was measured:
[1] = molecular target: rHDL bearing apoA-IW19:A136 (human) (UniProt P02647); experiment: FRET exchange assay, rHDL to lipid-free protein 1:5 molar, 37 C
[2] = molecular target: HDL in human plasma (human); experiment: EPR, frozen and thawed plasma
[3] = molecular target: HDL in human plasma (human); experiment: EPR, increasing probe concentration in patient plasma
[4] = molecular target: HDL in human plasma (human); experiment: EPR, frozen and thawed plasma with higher TG concentration
[5] = molecular target: HDL in human plasma (human); experiment: EPR, center peak amplitude over time, 0.3 mg/ml probe in plasma of patient D1
[6] = molecular target: HDL in human plasma (human); experiment: EPR, center peak amplitude over time, 0.3 mg/ml probe in plasma of patient M1
[7] = molecular target: HDL in human plasma (human); experiment: EPR, center peak amplitude over time, 0.3 mg/ml probe in plasma of patient N1
[8] = molecular target: HDL in human plasma (human); experiment: EPR, frozen and thawed plasma with higher TG concentration, third freeze-thaw
[9] = molecular target: 9.6 nm POPC rHDL generated with Alexa 350 labeled apoA-I (human) (UniProt P02647); experiment: displacement/exchange, rHDL apoA-I to lipid-free apoA-I 1:5 molar, 37 C, NDGGE fluorescence
[10] = molecular target: rHDL bearing apoA-IW19:A136 (human) (UniProt P02647); experiment: FRET (Trp19 to AEDANS136) exchange assay, rHDL to lipid-free protein 1:5 molar, 37 C
[11] = molecular target: rHDL bearing apoA-IW19:A136 (human) (UniProt P02647); experiment: FRET exchange assay, biphasic fit

rHDL bearing apoA-IW19:A136 (human), sequence (P02647 other isoform, or with tags, fused parts or gaps): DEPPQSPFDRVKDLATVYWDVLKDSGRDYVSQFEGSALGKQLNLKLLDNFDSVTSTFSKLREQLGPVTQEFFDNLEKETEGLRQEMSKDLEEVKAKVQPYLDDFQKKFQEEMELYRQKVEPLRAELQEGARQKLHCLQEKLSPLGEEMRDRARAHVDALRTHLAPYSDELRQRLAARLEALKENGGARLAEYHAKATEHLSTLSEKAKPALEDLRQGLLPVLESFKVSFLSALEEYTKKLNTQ
9.6 nm POPC rHDL generated with Alexa 350 labeled apoA-I (human), sequence (P02647 25-267): as the sequence (P02647 other isoform, or with tags, fused parts or gaps) above, with F8W, W19V, F50W, F72W, F108W, C136E counted along it

release of Alexa350 labeled apoA-I from rHDL into the lipid-free pool [9]: > 90%
Substance: unlabeled lipid-free apoA-I (from UniProt P02647 25-267)

exponential relaxation time (time to 50% maximal exchange, τ) [10]: 0.94 h
Substance: Trp Null apoA-I (four endogenous tryptophans substituted for phenylalanine) (from UniProt P02647 25-267)

exchange impaired population [11]: 57.3%
unaffected population [11]: 42.7%
exponential relaxation time of exchange (t1) [1]: 0.92 h
exponential relaxation time of exchange (t2) [1]: 18.8 h
Substance: Trp Null apoA-I oxidized by the MPO-H2O2-nitrite system (from UniProt P02647 25-267)

Second part, the substance before the results:

Substance: Trp Null apoA-I oxidized by peroxynitrite (from UniProt P02647 25-267)
exponential relaxation time of exchange (t) [1]: 0.67 h

Substance: apoA-ISL217 (apoA-I bearing a G217C mutation, cysteine derivatized with a thiosulfonate linked nitroxide spin label) (from UniProt P02647 25-267)
reduction of rate and degree of binding after a freeze-thaw cycle [2]: 10%
reduction of rate and degree of binding after the third freeze-thaw [2]: 20%
saturating concentration [3]: 1.9 mg/mL
decrease in EPR observable binding after freeze-thaw, plasma with higher TG [4]: 15%
time to maximal binding (patient D1) [5]: 10 min
time to maximal binding (patient M1) [6]: 8 min
time to binding (patient N1) [7]: < 5 min
decrease in EPR observable binding after freeze-thaw, plasma with higher TG [8]: 25%
